Experiment [1] concerns the target T1, MUC5AC glycopeptide H2N-GTTPSPVPT*TSTTSAP-OH (chart ID 10).
T1 peptide: H-GTTPSPVPT(GalNAc)TSTTSAP-OH
Put plainly: Tn glycopeptide microarray, Alexa Fluor 488 goat anti-mouse IgM. How it is done: (§1) The Tn glycopeptide microarray was prepared as previously described (25). The Consortium for Functional Glycomics (CFG) glycan microarray version 5.0 was used (www.functionalglycomics.org) (26). […] Slides were washed four times with TSM wash buffer 1 (20 mM Tris-HCl, pH 7.4, 150 mM NaCl, 2 mM CaCl₂), 2 mM MgCl2 and 0.05% Tween-20), and washed four times with TSM wash buffer 2 (20 mM Tris-HCl, pH 7.4, 150 mM NaCl, 2 mM CaCl2) and 2 mM MgCl2). Alexa Fluor® 488-labeled goat anti-human IgG or goat anti-mouse IgM secondary (diluted to 5 μg/ml) were used for detection. After washing as above, slides were washed once in water and dried before being read on a Genepix® 4300A microarray scanner (Molecular Devices). Images were analyzed with quantitation software (GenePix® Pro Microarray Analysis Software Ver. 7, Molecular Devices).

Experiment [2] concerns the target T2, EA2 glycopeptide Ac-PTTDSTT*PAPTTK-NH2 (chart ID 11).
T2 peptide: Ac-PTTDSTT(GalNAc)PAPTTK-NH2
Described as above. As for the experimental part: as §1

In experiment [3] the target is T3, EA2-R peptide Ac-PTTDSTTPAPTTK-NH2 (chart ID 12).
T3 peptide: Ac-PTTDSTTPAPTTK-NH2
Described as above. How it is done:
as §1

The target of experiment [4] is T4, a-Dystroglycan glycopeptide Ac-PPT*T*T*T*KKP-HN2 (chart ID 13).
T4 peptide: Ac-PPT(GalNAc)T(GalNAc)T(GalNAc)T(GalNAc)KKP-NH2
Described as above. How it is done:
as §1

Experiment [5] concerns the target T5, MUC1-1 glycopeptide H2N-TSAPDT*RDAP-NH2 (chart ID 14).
T5 peptide: H-TSAPDT(GalNAc)RDAP-NH2
The description is as above. How it is done:
as §1

Experiment [6] addresses T6, MUC1-1R peptide H2N-TSAPDTRDAP-NH2 (chart ID 15).
T6 peptide: H-TSAPDTRDAP-NH2
Described as above. How it is done: as §1

Experiment [7] concerns the target T7, Peptide-4 H2N-KTTT-CONH2 (chart ID 21).
T7 peptide: H-KTTT-NH2
Described as above. How it is done:
as §1

Experiment [8] has as its target T8, Peptide-5 H2N-KTTTG-CONH2 (chart ID 22).
T8 peptide: H-KTTTG-NH2
The experiment is described as above. How it is done:
as §1

Experiment [9] has as its target T1, MUC5AC glycopeptide …. Put plainly: Tn glycopeptide microarray, Alexa Fluor 488 goat anti-human IgG. As for the experimental part: as §1
Experiment [10] addresses T2, EA2 glycopeptide Ac-PTTDSTT*PAPTTK-NH2 …. The description is as above. As for the experimental part:
as §1

For experiment [11], the target named is T3, EA2-R peptide Ac-PTTDSTTPAPTTK-NH2 …. The experiment is described as above. As for the experimental part:
as §1

Experiment [12] addresses T4, a-Dystroglycan glycopeptide …. The experiment is described as above. How it is done: as §1
In experiment [13] the target is T5, MUC1-1 glycopeptide H2N-TSAPDT*RDAP-NH2 …. The experiment is described as above. How it is done:
as §1

The target of experiment [14] is T6, MUC1-1R peptide H2N-TSAPDTRDAP-NH2 …. The experiment is described as above. As for the experimental part:
as §1

The target in experiment [15] is T7, Peptide-4 H2N-KTTT-CONH2 (chart ID 21). The experiment is described as above. How it is done: as §1
Experiment [16] concerns the target T8, Peptide-5 H2N-KTTTG-CONH2 (chart ID 22). The experiment is described as above. As for the experimental part: as §1
Experiment [17] deals with T9, a-Dystroglycan peptide Ac-PPTTTTKKP-NH2 (chart ID 9).
T9 peptide: Ac-PPTTTTKKP-NH2
The experiment is described as above. How it is done:
as §1

The target in experiment [18] is T10, Asialo-BSM (desialylated bovine submaxillary mucin) (bovine).
T10 construct: also called desialylated BSM; Asialo-BSM beads
Put plainly: plate binding assay, Asialo-BSM coated on 96-well plate, serial dilution of antibody, fluorescent secondary antibody.

Experiment [19] deals with T9, a-Dystroglycan peptide Ac-PPTTTTKKP-NH2 …. Put plainly: Tn glycopeptide microarray, Alexa Fluor 488 goat anti-mouse IgM. How it is done: as §1
The target in experiment [20] is T11, A-MUC2 glycopeptide Ac-PT*TTPLK-NH2 (chart ID 1).
T11 peptide: Ac-PT(GalNAc)TTPLK-NH2
Put plainly: Tn glycopeptide microarray probed with biotinylated PNA and Alexa488-streptavidin.

Experiment [21] addresses T12, B-MUC2 glycopeptide Ac-PTT*TPLK-NH2 (chart ID 2).
T12 peptide: Ac-PTT(GalNAc)TPLK-NH2
The description is as above.

The target of experiment [22] is T13, C-MUC2 glycopeptide Ac-PTTT*PLK-NH2 (chart ID 3).
T13 peptide: Ac-PTTT(GalNAc)PLK-NH2
The experiment is described as above.

Experiment [23] has as its target T14, D-MUC2 glycopeptide Ac-PT*T*TPLK-NH2 (chart ID 4).
T14 peptide: Ac-PT(GalNAc)T(GalNAc)TPLK-NH2
The experiment is described as above.

Experiment [24] concerns the target T15, F-MUC2 glycopeptide Ac-PTT*T*PLK-NH2 (chart ID 6).
T15 construct: also called double-Tn-MUC2; bar label T*T*
T15 peptide: Ac-PTT(GalNAc)T(GalNAc)PLK-NH2
The description is as above.

GalNAc = N-acetylgalactosamine

B1: BaGs6, murine IgM anti-Tn monoclonal antibody from mouse ascites (antibody, V domains shown)
VH: DTMLQQSDAELVKPGASVKMSCKASGYTFTDHAIHWVKQKPEQGLEWIGYVSPGNGDIKYNEKFKGKATLSADKSSSTAYMQLNSLTSEDSAVYFCKRSYGSFDYWGQGTTLTVSS
VL: QIVLTQSPAIMSSSPGEKVALSCSASSSVSYVYWYQQKPGSSPKPWIYRTSNLASGVPARFSGSGSGTSYSLTISSMEAEDAATYYCQQYHSYPFTFGSGTKLEIKR
notes: Natural mouse IgM used as ascites fluid; also called Ca3638; anti-Tn ascites
Consider B1, for which the binding result in experiment [1], in experiment [2], in [3], in experiment [4], in experiment [5] and in experiment [6] was “no binding (tested: 1:200 dilution (text paragraph 261))” throughout. Further, the binding result in experiment [7] and in experiment [8] was “no binding (tested: 1:200 dilution (text paragraph 261))” in each case.

B2: Remab6, recombinant human chimeric IgG1 anti-Tn antibody (antibody)
heavy: not shown
light: QIVLTQSPAIMSSSPGEKVALSCSASSSVSYVYWYQQKPGSSPKPWIYRTSNLASGVPARFSGSGSGTSYSLTISSMEAEDAATYYCQQYHSYPFTFGSGTKLEIKRTVAAPSVFIFPPSDEQLKSGTASVVCLLNNFYPREAKVQWKVDNALQSGNSQESVTEQDSKDSTYSLSSTLTLSKADYEKHKVYACEVTHQGLSSPVTKSFNRGEC
notes: Mouse variable regions engineered from BaGs6 with human IgG1 and kappa constant regions; expressed in HEK293 Freestyle cells; also called Remab6-WT; hIgG1
In the case of B2, the binding result in [9], in experiment [10], in experiment [11], in [12], in experiment [13] and in experiment [14] was “no binding (tested: 5 µg/ml (text paragraph 261))” throughout. Also, the binding result in experiment [15], in experiment [16] and in experiment [17] was “no binding (tested: 5 µg/ml (text paragraph 261))” throughout. Besides, the affinity in [18], expressed as Kd, was 829 nM.

B3: ReBaGs6, recombinant murine IgM anti-Tn antibody (antibody)
heavy: DTMLQQSDAELVKPGASVKMSCKASGYTFTDHAIHWVKQKPEQGLEWIGYVSPGNGDIKYNEKFKGKATLSADKSSSTAYMQLNSLTSEDSAVYFCKRSYGSFDYWGQGTTLTVSSESQSFPNVFPLVSCESPLSDKNLVAMGCLARDFLPSTISFTWNYQNNTEVIQGIRTFPTLRTGGKYLATSQVLLSPKSILEGSDEYLVCKIHYGGKNRDLHVPIPAVAEMNPNVNVFVPPRDGFSGPAPRKSKLICEATNFTPKPITVSWLKDGKLVESGFTTDPVTIENKGSTPQTYKVISTLTISEIDWLNLNVYTCRVDHRGLTFLKNVSSTCAASPSTDILTFTIPPSFADIFLSKSANLTCLVSNLATYETLNISWASQSGEPLETKIKIMESHPNGTFSAKGVASVCVEDWNNRKEFVCTVTHRDLPSPQKKFISKPNEVHKHPPAVYLLPPAREQLNLRESATVTCLVKGFSPADISVQWLQRGQLLPQEKYVTSAPMPEPGAPGFYFTHSILTVTEEEWNSGETYTCVVGHEALPHLVTERTVDKSTGKPTLYNVSLIMSDTGGTCY
light: QIVLTQSPAIMSSSPGEKVALSCSASSSVSYVYWYQQKPGSSPKPWIYRTSNLASGVPARFSGSGSGTSYSLTISSMEAEDAATYYCQQYHSYPFTFGSGTKLEIKRADAAPTVSIFPPSSEQLTSGGASVVCFLNNFYPKDINVKWKIDGSERQNGVLNSWTDQDSKDSTYSMSSTLTLTKDEYERHNSYTCEATHKTSTSPIVKSFNRNEC
notes: Mouse IgM (mu heavy chain, kappa light chain); also called ReGs6; mIgM
As for B3, the binding result in [4], in experiment [5], in [6], in experiment [7], in [8] and in [19] was “no binding (tested: 20 or 2 µg/ml (text paragraph 261))” each time. In [18], this molecule yielded a dissociation constant (Kd) of 54.3 nM.

B4: PNA (other)
chain: AETVSFNFNSFSEGNPAINFQGDVTVLSNGNIQLTNLNKVNSVGRVLYAMPVRIWSSATGNVASFLTSFSFEMKDIKDYDPADGIIFFIAPEDTQIPAGSIGGGTLGVSDTKGAGHFVGVEFDTYSNSEYNDPPTDHVGIDVNSVDSVKTVPWNSVSGAVVKVTVIYDSSTKTLSVAVTNDNGDITTIAQVVDLKAKLPERVKFGFSASGSLGGRQIHLIRSWSFTSTLITTTRRSIDNNEKKIMNMASA
modifications: Biotinylated at unspecified positions. The native lectin is a homotetramer; one subunit is given.
notes: also called biotinylated PNA; Peanut agglutinin
For B4, the binding result in experiment [20], in experiment [21], in [22], in experiment [23] and in experiment [24] was “no binding” throughout.

As usually defined, the Kd is the equilibrium constant for the complex coming apart.

The values above are taken from patent US20240092935A1 (BETH ISRAEL DEACONESS MEDICAL CENTER, published 2024).
